Laboratory results published in the nanobody polyreactivity screen of Harvey et al. (2022).

Assay: yeast display, Sf9 membrane polyspecificity reagent, FACS + sequencing; frameworks hold sequencing errors
Procedure, shortened: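 A synthetic nanobody library was expressed on Saccharomyces cerevisiae BJ5465 by galactose induction for 36–48 hours. The library was stained for 1 hour at 4 °C with 10% biotinylated, detergent-solubilized Sf9 membrane reagent and enriched with streptavidin microbeads before FACS. Low and high (top ~1%) gates were set on anti-HA fluorescence for expression and streptavidin fluorescence for reagent binding, and each polyreactivity label reflects the gate of origin.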

Row | Sequence | polyreactivity (PSR sort gate)
1 | QFQLVESGGGLVQAGGRLRLSCAASGVIFSYYAMGCYRQAPGKERELVAAISSSGSRTYYADSVKGRFTISRDNAKNTVYLQMNRLKPEDTAVYYCAARGAAKYGYWGQGTQVTVSS | high polyreactivity
2 | QVQLVESGGGLVQAGGSLRLSCAASGSIFNSYAMGWYRQAPGKERELVAAISIRGTRTYYADSVKGRFTISRDNAKNTVYLQMNSLKPEDTAVYYCAADASYTEGMDYWGQGTQVTVSS | high polyreactivity
3 | QVQLVESGGGLVQAGGSLRLSCSASGSIFYWYDMGWYRLAPGKERELVAAISSGGSTNYADSVKGRFTISRDNAKNTVYLQMISLKPEDTAVYYCNADVPLRYGPIYFRRLDYWGQGTQVTVSS | low polyreactivity
4 | QVQLVESGGGLVQAGGSLRLSCAASGFIFNYNAMGWYRQAPGKERELVAAISGTGVRTYYADSVKGRFTISRDNAKNTVYLQMNRLKPEDTAVYYCNAYYGYIPVSGYRNDYWGQGTQVTVSS | low polyreactivity
5 | QVQLVESGGGLVQAGGSLRLSCAASGFIFRRYTMGWYRQAPGKERELVATITRSVNTDYADSVKGRFTFSRDNAKNTVYLQMNSLKPEDTAVYYCAARKYYYFPVAYDYWGQGTQVTVSS | high polyreactivity
6 | QVQLVESGGGLVQAGGSLRLSCAASGFTFAVYTMGWYRQAPGKERELVAAITGSGGRTYYADSVKGRFTISRDNAKNTVYLQMNSLKPEDTAVYYCNAVQRSSRQTFEYCGQGTQVTVSS | low polyreactivity
7 | QVQLVESGGGLVQAGGSLRLSCAASGYIFTPYAMGWYRQAPGKERELVAAITGSGSSTYYADSVKGRFTISRDNAKNTVYLQMNSLKPEDTAVYYCAADSYGFYGYYYYELEYWGQGTQVTVSS | low polyreactivity
8 | QVQLVESGGGLVQAGGSLRLSCAASGSIFWSNAMGWYRQAPGKEREFVAAITWSGDNTYYADSVKGRFTISRDNAKNTVYLQMNSLKPEDTAVYYCNTEWGLFYDWTVLHIYLHGYYYWGQGTQVTVSS | low polyreactivity
9 | QDQLVESGGGLVQAGGSLRLSCAASGLIFGYYAMGWYRQAPGKERELVAVISYSGGSTYYADSVKGRYTISRDNAKNTVYFQMNSMKPEDTAVYYCNTYRAYYRHTKEYGYWGQGTLVTVSS | high polyreactivity
10 | QDQLVESGGGLVQAGRSLRLSCAASGRTFRTYTMGWYRQAPGKERELVAAISRGGSTNYADSVKGRFTISRDNEKNTVYLQMNSLKPEDTAVYYCNAKASFCSPYDYWGQGTQVTVSS | high polyreactivity
11 | QVQLVDSGGGLVQAGGSLRLSCADSGSIFSRNTMGWYRQAPGKERELVAGISSSGSRTYYADSVKGRFTISRDNAKNTVYLQMNSLKPEDTAFYYCAAGSQRRYYHTNCDSFNYSGQGTQVTVSS | low polyreactivity
12 | QVQLVESGGGLVQAGGSLRLAVLPPDLPSTLNDMGWYRQAPGKERELVAAITRGGSTNYADSVKGRFTISRDNAKNTVYLQMNSLKPEDTAVYDCAAPYAGWRDGGDYWGQGTQVTVSS | low polyreactivity
13 | QVHLVESGGGLVQAGGSLRLSCAASGSTFDTYALGWYRQAPGKEWELVAAINTGGRTKYADSVKGRFTISRDNAKNTVYLQMNSLKPVDTGVYYCAARLSTTGVAYGYWGLGTQVTVSS | high polyreactivity
14 | QVQIVESGGGLVQAGGSLRISCAASGRTFVYNTMGWSRQAPGKERELVAAITDRGTSTFYADSVKGRFTISRDNAKNTVDLQMNSLKPEDTAVYYCAKDWLVTEFDYWAQGTQVTVSS | low polyreactivity
15 | QVQLVESGGGIVQAGGSLSLSCAASGRSFRYYAMGWYRQAPGKEREMVAAIDTSSGSTYYADSVKGRFTISRDNAMNTVFLQMNSLKPEDTAVYYCNATWWIPLIYDYWGQGTHVTVSS | low polyreactivity
16 | QVQLVESGGGLVQAGGSLRLSCAASGSIFLRYDMGWYRQAPGKERELVAAISRGGSTYYADSVKGRFTISRDNAKNTVYLQLNSLKPEDTAVYSCAARRFGREHGYWGQGTQVTVSS | high polyreactivity
17 | QVQLVESGGGLVQAGGSLRLSCAASGSIIVYYGMGWYRQAPGKERELVAAISSGGSTHYADSVKGRFTISRDNAKNSVYLQMNSVKPEDTAVYYCAADRFFWLRSYPRYYYWGQGTQVTVSS | low polyreactivity
18 | QVQLVESGGGLVQAGGSLRLSCAASGNIFLFYVMGWYRQAPVKERELVAAITLSGTNTYYADSVKGRFTISRDNAKNNVYLQMNSLKPEDTAVYYCNADWWSDGYDYWGQRTQVTVSS | low polyreactivity
19 | QVQLVESGGGLVQAGGSLRLSCAASGRIFAVYAMGWYRQAPGKERELVAAIRWSGVRTYYADSVTGRFTISRDTAKKTVYLQMNSLKPEDTAVYYCAADYSGQYYSPVSYLYDYWGQGTQVTVSS | high polyreactivity
20 | QVQLVESGGGLVQAGGSLRLSCAASGFIFYDYTMGWYRQAPGKERELVAAISSRGGSTYYADSVKGRFTISRDNAKNTVYLQMNSLKPEDTAVYYCAAYWSQQTYEYWGQGTQVTVSS | high polyreactivity
21 | QFQLVESGGGLVQAGGSLRLSCAASGIIFTTYVMGWYRQAPGKERELVAAISRGGRTYYADSVKGRFTSSRDNAKNTVYLQMNSLKPEDTAVYYCARVAYKGYGEDDYWGQGTQVTVSS | high polyreactivity
22 | QVQLVESGGGLVQAGGSLRLSCAASGIIFQFYAMGWYRPAPGKERELVAAISRSGGITHYADSVKGRFTISRDNAKNTVYLQMNSLKPEDTAVYYCNAVQPARFVGGFGTGVDYWGQGTQVTVSS | high polyreactivity

Row | Sequence | polyreactivity (PSR sort gate)
23 | QVQLVESGGGLVQAGGSLRLSCAASGSTFWLYAMGRYRPAPGKERELVASISSRGGSTYYADSVKGRFTISRDNAKNTVYLQMNSLKPEDTAVYYCAAKDIRYDDDYWGQGTQVTVSS | low polyreactivity
24 | QVQLVESGGGLVQAGGSLRLSCAASGYTFRPYAMGSYIQAPGKERELVAAISSTGGRTYYADSVKGRFTISRDIAKNTVYVQMNSLKPEYTAVYYCAVLKVYRSSFDYCGQGTQVTVSS | high polyreactivity
25 | QVQPVESGGGLVQAGGSLRLSCDASGRIFYEYAMGRSRQAPGKERELVAISTSGGNTYYADSVKGRFTISRDNAKNTVYLQMKSLKPEDTEVYYCAKRGYRAYYWGQGTLVTVSS | high polyreactivity
26 | QVQLVESGGGLVQAGGSLRLSCAASGSIFYYYAMGWYRQAPGKERELVAAIDSGGSTYYADSVKGRFTISRDNAKNTVYLQMNSLKPEDTAVYYCAADTYWFVYYGYDYWGLGTQVTVSS | low polyreactivity
27 | QVQLVESGGGLVQAGGSLRLSCASSGSIFNTYTMGWYRQAPGKDRELVAAISSGGSTYYADSVKGRFTISRDNAKKTVYLQMNSLKPEDTAVYYCAAYGHSFQIYDYWGQGTHVTVSS | low polyreactivity
28 | QVQLVESGGGLVQAGGSLRLSCAASGGTFRLYAMGWYRQAPGKERELVAAISGRGGSTYYADSVKGRFTISRDNAKNTVYLQMNSLKPEDTAVYYCARYRRGKMDYWGQGTQVTVSS | high polyreactivity
29 | QVQLVESGGGLVQAGGSLRLTCAASGSTLYWKAMGWYRQAPGKERELVASITSSGGSTYYADSVKGRFTISRDNAKNTVYLQMNSLKPEDTAVYDCATESWWRYSEYYYWGQGSQVTVSS | low polyreactivity
30 | QVQLVESGGGLVQAGGSLRLSCAASGRTFQRYAMVWYRQAPGKERELVPAITSRGGSTYYSDSVKGRFTISRDNAKNTVYLQMNSLKPEDTAVYYCNARSRRTLSEPQSEMDYWGQGTQVTVSS | high polyreactivity
31 | QVQLVESGGGLVQAGGSLRLSCAASGRIFGTYAMGWYRQAPGKERELVAAITSSGSTNYADSVKGRFTISRDTAKKTVYLQMNSLKPEDTAVYYCAAVWVVFYYCYTVPVHYEYWGQGTQVTVSS | low polyreactivity
32 | QVQLVESGGGLVQAGGSLRLSCAASGRTFYGNAIAWYRQAPGKERELVAAINRGGNTNYADSVKGRFTISRDNAKNTVYLQMNSLKPEDTAVYYCAARPYYRYFEYWGQGTQVTVSS | high polyreactivity
33 | QVQLVESGGGLVQAGGSLRLSCAASGSIFDYKAMGWYRQAPGKERELFADITISDDSTYYADSVKGRFTISRDNAKNTVYLQMNSLKPEDTAVYYCAADIKYYWYYYYWAYAYDYWGHGTQVTVSS | high polyreactivity
34 | QVQLVESGGGLVQAGGSLRLSCAASGFIFAGYAMGWYRQAPGKERELVAAISGSGGRTYYADSVKGRFTISRDNAKNTVYLQMNSLKPEDTAVYYCNAGKQYRYDWGQGTQVTVSS | high polyreactivity
35 | QVQLVESGGGLVQAGGSLRLTCADSGSIFYYYGMGWYRQAPGKERELVASITQSGVSTYYADSVKGRFTISRDNANNSVYLQMNSLKPEYTAVYYCAAGTVSGVDYWGQGTQVTVSS | high polyreactivity
36 | QVQLVESGGGLVQAGGSLRLSCAASGFAFSYYAMGWYRQAPGKEREFVASIDWSGGSTYYADSVKGRFTISRDNAKNIVYLQMNSLKPEDTAVYYCAAELDYFPGYDYWGQGTQVTVSS | low polyreactivity
37 | QVQLLESGGGLVQAGGSLRLSCAASGRIFKFNAMGWYRQAPGKERDLVAAISKRGGSTYYADSVKGRFTISRDNAKNTVYLQMISLKPEDTAVYYCAADRSPYGGDYDYWGQGTQVTVSS | high polyreactivity
38 | QDQHVESGGGLVQAGGSLRLSCAASGGIFQSYTMGRYRQAPGKEREFVAAITYSGGSTHYADSVKGRFTISRDKAKNTVYLQMNSLKPEDTAVYYCNADRYYGRGYGYWGQGTQVTVSS | low polyreactivity
39 | QVQLVESGGGVVQAGGSLRLSCAASGLIFRRYAMGWSRQAPGIDRELVAAISGNGGSTYYADSVKGRFTISRDNAKNTVYVQMTCLKPEDTAVYYCAARSLGIYNYWGQGTQVTVSS | high polyreactivity
40 | QVQLVESAGGLVQAGASLRLSCAASGRIFVRNAMGWYRQAPGKEREMVADITNGGSTNYADSVKGRFTISRDNAKNTVYLQKNRLNPEDTAVYYCNADGFVYDLRARPGWVDYWGQGTQVTVSS | low polyreactivity
41 | QVQLVESGGGLVQAGGSLRLSCAASGRTFSVNAMGWYRPAPGKERELVAAISWSTGSTYYADSVKGRFTISRDNAKNTVYLQMNSLKPEDTAVYYCAKLYEYRRSRYRTYGYWGQGTQVTVSS | high polyreactivity
42 | QVQLVESGGGLVQAGGSLRLSCAASGSIFIYYAMGWYRQAPGKERELVAAISFSGARTYYADSVKGRFTISRDNAKNNVSLQMNSLKPEDTAVYYCNVEIGTGDYDYWGQGTQVTVSS | low polyreactivity
43 | QVQLVESGGGLVQAGGSLRLSCAASGRTFEGNALGWYRQAPGKERELVAAITSGGRTNYADSVKGRFTISRDNAKNTVYLQMNSLKPEDTAVYYCAVETRDRSTYFPGQAYDYWGQGTQVTVSS | low polyreactivity
